Source: article PMC7237485

Molecular target: HA-tagged WT WD40 (FBW7ΔDF) (human) (UniProt Q969H0)

Merkel cell polyomavirus small T antigen, wild type (natural protein)
LT protein turnover (t1/2) in a cycloheximide chase, 293 cells co-transfected with LT and sT; FBW7 is that of the cells, not the ΔDF construct: > 10 h
